# Assays:
# γD-crystallin [1] = biological target: T1, γD-crystallin (Homo sapiens, UniProt P07320); experiment: γD-crystallin turbidity assay (OD395 nm) at 4° C.; type: biochemical; settings: γD-crystallin 50 mg/ml, RJK001 0-500 uM, 5 min
# T1 construct: Wild-type human full-length γD-crystallin gene were inserted into pET14b vectors; made in house; host or cells: E. coli BL21 (DE3)
# T1 sequence (P07320 1-174): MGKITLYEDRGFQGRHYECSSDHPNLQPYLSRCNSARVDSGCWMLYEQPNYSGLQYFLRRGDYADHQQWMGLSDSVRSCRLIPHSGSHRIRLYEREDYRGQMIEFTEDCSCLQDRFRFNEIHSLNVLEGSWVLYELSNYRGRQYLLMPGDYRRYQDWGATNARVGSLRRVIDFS
# Protocol: The purified γD-crystallin was then dissolved in protein solubilization buffer to a final concentration of 50 mg/ml, Place γD-crystallin at 4° C. for 20 minutes to form a stable biphasic phase, add different concentration of the short peptide RJK001 in Sul γD-crystallin in a volume ratio of 1:1, final concentration of RJK001 from low to high is 0 uM, 20 uM, 50 uM, 100 uM, 150 uM, 200 uM, 250 uM, 300 uM and 500 uM, Use a 10 ul pipette tip to mix them well, then place them at 4° C. for 5 min, absorbance at 395 nm (OD395 nm) was monitored at 4° C. using Nanodrop ONE (Thermo Fisher Scientific, Inc.). […] The turbidity level reflects the degree of phase separation.
# For γD-crystallin, γD-crystallin was purified in vitro, then were dissolved in protein solubilization buffer (150 mM NaCl, 50 mM tris-HCl, PH 7.5) to a final concentration of 50 mg/ml, Place γD-crystallin at 4° C. for 20 minutes to induce phase separation.
# We followed the Turbidity Assays experiment as previously reported. Briefly, G3BP1 turbidity analysis were at room temperature and γD-crystallin protein was at 4° C. Proteins and Champ-E(RJK001), Champ-K, Champ-D or mutants are mixed at room temperature for 10 minutes prior to turbidity assays. […] Absorbance at 395 nm (OD395 nm) was monitored at room temperature using Nanodrop ONE (Thermo Fisher Scientific, Inc.).
# γD-crystallin [2] = biological target: T1, γD-crystallin; experiment: 1H-15N HSQC NMR of γD-crystallin with peptide; type: binding; design: interaction with γD-crystallin from chemical shift difference (CSD): dose or concentration left out as unconfirmed
# Protocol: To evaluate whether a protein undergoes small or significant structural changes before and after adding polypeptides, ^1H-^15N HSQC spectroscopy is a useful tool and can be used as a “fingerprint” of the three-dimensional structure. […] Wild-type human full-length γD-crystallin gene were inserted into pET14b vectors. E. coli BL21 (DE3) cells were transformed with these vectors. For protein production, cells were grown at 37° C. to an absorbance at 600 nm of 0.6 and induced by the addition of 0.5 mM IPTG at 37° C. for 4 h. For the N15 labeling of the protein, the transformed E. coli BL21(DE3) cells were cultured and induced in M9 medium with NH4Cl as the only nitrogen source. […] Using final 300 uM human γD-crystallin at 25° C., the two-dimensional [^1H-^15N] heteronuclear single quantum coherence (HSQC) spectra were recorded to determine the domain interactions at the residue-specific level.
# Chemical shift difference (CSD) was measured for γD-crystallin alone or with Champ-E(RJK001). […]
# HSQC spectrums were acquired and analysis with ccpNMR, amide ^1H-^15N combined chemical shift differences were calculated using the equation Δδ=[(0.125ΔδN)^2+ΔδH^2]^1/2. […]
# The N15 labeled protein was mix with the unlabeled peptide with the ratio of 1:0, 1:2. […] Amide ^1H-^15N combined chemical shift differences were calculated using the equation Δδ) [(0.125ΔδN)^2+ΔδH^2]. Intensity changes were calculated by I/I0. […]
# [3] = test system: crystallin proteins of the lens from cataract patients; experiment: Soluble crystallin in cataract lens grinding fluid by western blot (anti-βB1 crystallin); design: species or system human; settings: 20 ul 2.5 mM RJK001 in 2 ul grinding fluid, RT 10 min
# Protocol: Quantitative analysis was performed using densitometry of crystallin proteins by western blot analysis of the supernatant or insoluble fraction of cell lysates.
# Quantitative analysis was performed using densitometry of crystallin proteins by western blot analysis of the supernatant or insoluble fraction of lens lysates. Collect one intact eye lenses from cataract patients. Put it in 2 ml Eppendorf tube containing 700 ul protein solubilization buffer, Grind the complete lens at 4° C., 30s once for 3 times with Electric grinder to obtain 1 ml grinding fluid, add 20 ul 2.5 mM RJK001 in 2 ul grinding fluid as the experimental group, add 20 ul protein dissolving solution in 2 ul grinding fluid as a control, place it at RT for 10 min, centrifuge at 13000 rpm and take the supernatant for western blotting, After blocking with 5% milk, membrane were incubated with anti-βB1 crystallin (Santacruz, sc-48335, 1:3000) overnight at 4° C., Membrane were incubated with secondary antibodies for 1 h at room temperature, then the blots were detected by the enhanced chemiluminescence.
# C-terminal fusion cell-penetrating peptide RJK001 and N-terminal fusion cell-penetrating peptide RJK012 were purified in vitro and added into SH-SY5Y cell. Cells were harvested at 1 h, 4 h, 8 h and 24 h respectively and were washed with PBS. Total proteins were extracted from SH-SY5Y cells with lysis buffer. […]
sequence,measurement,setting,value
"TEPQEESEEEVEEPEERQQTPEVVPDDSGTFYDQTVSNDLE [RJK001, polypeptide with hydrophilic and hydrophobic segment, expressed in E. coli]",turbidity of γD-crystallin (OD395 nm),γD-crystallin [1],reduced the turbidity of γD-crystallin in a concentration dependent manner
same,1H-15N HSQC spectra of γD-crystallin prior to and after peptide incubation,"γD-crystallin [2]; 300 uM 15N γD-crystallin, molar ratio 1:2, 25° C.",significant chemical shifts
same,interaction with γD-crystallin from chemical shift difference (CSD),γD-crystallin [2]; molar ratio γD-crystallin:RJK001 1:2,interacted with the full-length wildtype γD-crystallin protein
same,solubility of crystallin proteins of the lens (supernatant western blot),[3],could improve the solubility of crystallin proteins
